From patent publication US20240101647A1 (published 2024)

Target: monomeric human Fc-fused SARS-CoV-2_RBD-SD1 (UniProt P0DTC2 319-591)
Assay: BLI

B1: VHH3.89 (VHH)
VHH: QVQLQESGGGLVQPGGSLRLSCAASGFTLDYYAIGWFREVPGKEREGLSRIDSSDGSTYYADSVKGRFTISRDNTKNIVYLQMNNLKPEDTAVYYCATDPIIQGRNWYWTGWGQGTQVTVSS
koff: 0.0002 s⁻¹
